The subject of this experiment is NSCs. The experiment is described as follows: NSC behavior cultured near hydrogels with CNTF delivery component. It is filed as cell-based. The settings on record: seven days. On the procedure: NSCs were positive for green fluorescent protein (GFP) and were maintained in high glucose DMEM/F12 (1:1) supplemented with 20 ng/mL mouse epidermal growth factor (EGF), N-2, B-27, penicillin/streptomycin, and L-glutamine.
To test the response of NSCs cultured near but not directly on or within hydrogels with a CNTF delivery component, NSCs were seeded as neurospheres in chamber slides at a concentration of 5×10^5 cells/mL. A hydrogel containing acrylated nanoparticles encapsulating an estimated 10 ng of CNTF was added to the culture medium. In other experiments a hydrogel containing either blank (BSA-only) nanoparticles, no nanoparticles, or unencapsulated CNTF at 10 ng/mL was added, and no hydrogel was added in the negative control. Throughout the seven days of the experiment, the migration of NSCs out of the neurospheres was measured using the fluorescence of the GFP NSCs. At the end of seven days, all hydrogels were removed. Cells were fixed for analysis in 10% formalin for 1 hour and rinsed in 1× PBS. Differentiation was quantified by immunocytochemistry as described below.
Samples were blocked (3% normal goat serum, 5% BSA, 0.3% TritonX-100) for 1 hour, then rinsed and incubated with primary antibodies against mouse β-III-tubulin (B3T; Promega; 1:1000), mouse nestin (BD Biosciences; 1:200), rabbit glial fibrillary acidic protein (GFAP; Sigma; 1:160), rabbit oligodendrocyte transcription factor 1 (Olig1; Chemicon; 1:200), or caspase-3 (Sigma, 1:10) for 2 hours. They were then rinsed and incubated with species-specific Alexa Fluor 647 secondary antibodies (Molecular Probes; 1:200) for 1 hour, and rinsed again. Cells in chamber slides were also stained with DAPI (1:35000) for 5 minutes, rinsed again, and stored in 1× PBS at 4° C. […]
The slides were viewed using a Zeiss Axiovert 200 microscope with a Zeiss Mrc camera, and images were captured through Axiovert 4.0 software. Expression of each marker was quantified by the ratio of the area of fluorescence for each marker to the area of fluorescence for the GFP labeling. Results are expressed as mean±coefficient of variation.

B1: CNTF: Recombinant human ciliary neurotrophic factor with BSA carrier (R&D Systems) (protein, UniProt P26441 1-200, looked up)
Ciliary neurotrophic factor: MAFTEHSPLTPHRRDLCSRSIWLARKIRSDLTALTESYVKHQGLNKNINLDSADGMPVASTDQWSELTEAERLQENLQAYRTFHVLLARLLEDQQVHFTPTEGDFHQAIHTLLLQVAAFAYQIEELMILLEYKIPRNEADGMPINVGDGGLFEKKLWGLKVLQELSQWTVRSIHDLRFISSHQTGIPARGSHYIANNKKM
modifications: BSA carrier
With B1, for the setting “hydrogel added to culture medium”, the “migration of NSCs out of neurospheres” value is given as “increased migration”. Further, under “immunocytochemistry”, the GFAP expression entry was “upregulation of GFAP” and the nestin expression entry is “downregulation of nestin”.

These data come from patent US20110250284A1, “Nanoparticles for Use as Synthetic Platelets and Therapeutic Agent Delivery Vehicles” (priority 2008, published 2011).
